Results taken from patent US20260219282A1.

Experiments:
[1] = molecular target: monoclonal antibody raised against the C4A4-HNE target sequence; test: competitive ELISA: standard peptide against the biotinylated peptide on a streptavidin plate, HRP-conjugated antibody; mean of the standard curves
[2] = molecular target: synthetic peptide mimicking the type IV collagen alpha-3 chain, undigested
[3] = molecular target: synthetic peptide mimicking the type IV collagen alpha-4 chain, undigested
[4] = molecular target: monoclonal antibody raised against the C4A3-HNE target sequence; test: competitive ELISA: standard peptide against the biotinylated peptide on a streptavidin plate, HRP-conjugated antibody; mean of the standard curves

## TYPGRHGPPG [C4A4-HNE standard/selection peptide …]
[1]
  IC50: 0.0336 µg/mL

B1: active neutrophil elastase purified from human cells (protein)
chain: IVGGRRARPHAWPFMVSLQLRGGHFCGATLIAPNFVMSAAHCVANVNVRAVRVVLGAHNLSRREPTRQVFAVQRIFENGYDPVNLLNDIVILQLNGSATINANVQVAQLPAQGRRLGNGVQCLAMGWGLLGRNRGIASVLQELNVTVVTSLCRRSNVCTLVRGRQAGVCFGDSGSPLVCNGLIHGIASFVRGGCASGLYPDAFAPVAQFVNWIDSIIQ
[2]
  release of the neo-epitope after 4 hours of incubation with active HNE, detected by the C4A3-HNE ELISA: HNE was able to generate both neo-epitopes
[3]
  release of the neo-epitope after 4 hours of incubation with active HNE, detected by the C4A4-HNE ELISA: HNE was able to generate both neo-epitopes

## EGTRPGPPGP [C4A3-HNE standard/selection peptide …]
[4]
  IC50: 0.0731 µg/mL
